This note sets out measurements from article PMC2978286 (Journal of cardiovascular pharmacology, 2010).

The target in this test is β2AR-YFP (UniProt P07550 1-413). Briefly: FRET or BRET. On the technique in general: In BRET a luciferase serves as donor, and the signal depends on an acceptor being close.

B1: CXCR4-RLuc (receptor, UniProt P61073 1-352, looked up)
chain: MEGISIYTSDNYTEEMGSGDYDSMKEPCFREENANFNKIFLPTIYSIIFLTGIVGNGLVILVMGYQKKLRSMTDKYRLHLSVADLLFVITLPFWAVDAVANWYFGNFLCKAVHVIYTVNLYSSVLILAFISLDRYLAIVHATNSQRPRKLLAEKVVYVGVWIPALLLTIPDFIFANVSEADDRYICDRFYPNDLWVVVFQFQHIMVGLILPGIVILSCYCIIISKLSHSKGHQKRKALKTTVILILAFFACWLPYYIGISIDSFILLEIIKQGCEFENTVHKWISITEALAFFHCCLNPILYAFLGAKFKTSAQHALTSVSRGSSLKILSKGKRGGHSSVSTESESSSFHSS
On to B1, for which the “BRET ratio (basal)” value amounted to 0.23; the “BRET ratio (with ISO and SDF-1)” value stood at 0.42.
